From article PMC10708888, “Evolution towards simplicity in bacterial small heat shock protein system” (eLife, 2023) come the findings set out here.

Series [1] addresses heat-aggregated E. coli proteins. Kind of series: biolayer interferometry (BLI). The conditions noted are these: value read at the end of the association phase (~60 min), read off a plot. (BLI is a label-free optical method that tracks binding on a fibre tip over time.)
Series [2] deals with T1, His-tagged luciferase, heat-aggregated on the BLI sensor (firefly, UniProt P08659 1-550 = luciferase).
T1 construct: firefly luciferase, His-tagged construct of Obuchowski et al., 2019; anchoring layer attached to NTA sensors in 4.5 M urea, then aggregate formed at 44 °C; also called aggregated luciferase; luciferase aggregates; source: purified as described previously (Obuchowski et al., 2019)
Put plainly: BLI; ForteBio BLItz; His-tagged luciferase aggregated on the sensor; 5 µM sHsp (preincubated 10 min at 44 °C) bound for 10 min, then buffer F or Hsp70 system (0.7 µM DnaK, 0.28 µM DnaJ, 0.21 µM GrpE, 5 mM ATP) for 1 hr; room temperature. The conditions noted are these: both partners purified.

Series [3] concerns the molecule itself. Kind of series: dynamic light scattering; 10 µM sHsp in buffer F (50 mM Tris pH 7.5, 150 mM KCl, 20 mM MgCl2, 2.5 mM DTT); oligomer size measured at 25 °C and 44 °C in repeated cycles.

T1 sequence (P08659 whole entry): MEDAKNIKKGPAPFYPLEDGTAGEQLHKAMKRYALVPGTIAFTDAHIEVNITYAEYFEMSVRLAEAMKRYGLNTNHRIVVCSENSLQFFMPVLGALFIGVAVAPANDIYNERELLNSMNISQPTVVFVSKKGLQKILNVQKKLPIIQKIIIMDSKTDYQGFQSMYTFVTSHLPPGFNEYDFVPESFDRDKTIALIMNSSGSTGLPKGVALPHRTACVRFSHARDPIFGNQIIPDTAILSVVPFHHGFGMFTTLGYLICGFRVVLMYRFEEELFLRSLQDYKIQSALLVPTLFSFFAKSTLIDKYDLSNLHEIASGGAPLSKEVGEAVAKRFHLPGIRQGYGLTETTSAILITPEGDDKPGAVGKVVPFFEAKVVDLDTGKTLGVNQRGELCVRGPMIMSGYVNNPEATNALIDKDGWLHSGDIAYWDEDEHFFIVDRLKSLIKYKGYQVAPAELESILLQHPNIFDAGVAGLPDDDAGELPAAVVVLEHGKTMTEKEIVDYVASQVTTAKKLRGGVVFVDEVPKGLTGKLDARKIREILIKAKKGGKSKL

As for “IbpA from Escherichia coli (from UniProt P0C054) Q66H; G109D”, the response in series [1] (parent: est. 2.7) amounted to 1.5 nm.
Take “IbpA from Erwinia amylovora (from UniProt A0ABX7MII2) H67Q; D110G”: the response in series [1] (parent: est. 0.91) was 1.4 nm.

B1: IbpA_(E.coli) Q66H G109D (natural protein, E. coli, UniProt P0C054 1-137, looked up)
chain: MRNFDLSPLYRSAIGFDRLFNHLENNQSQSNGGYPPYNVELVDENHYRIAIAVAGFAESELEITAHDNLLVVKGAHADEQKERTYLYQGIAERNFERKFQLAENIHVRDANLVNGLLYIDLERVIPEAKKPRRIEIN
notes: IbpA, small heat shock protein of E. coli, with AncA1-like substitutions; source: purified
B1: the binding result in series [2] and in series [3] was “binds” in each case.

B2: IbpA from Escherichia coli (natural protein, E. coli, UniProt P0C054 1-137, looked up)
chain: MRNFDLSPLYRSAIGFDRLFNHLENNQSQSNGGYPPYNVELVDENHYRIAIAVAGFAESELEITAQDNLLVVKGAHADEQKERTYLYQGIAERNFERKFQLAENIHVRGANLVNGLLYIDLERVIPEAKKPRRIEIN
notes: IbpA, small heat shock protein of E. coli; also called IbpA_(E. coli); IbpAEc; source: purified as described previously (Ratajczak et al., 2009)
With B2, the binding result in series [2] was “binds”.
